From patent US10450570B2, “Compositions and methods for controlling vasculature” (YALE UNIVERSITY, priority 2016, dated 2019)

Key:
HDLECs = test: Glycolytic flux measurement (5-3H-glucose); type: cell-based, human
Experimental: Glycolysis was measured as previously described. Briefly, subconfluent HDLECs cultured in 12-well plates were incubated with 1 ml/well EBM2 medium (containing appropriate amount of serum and supplement) with 80 μCi/mmol 5-^3H-glucose (Perkin Elmer) for 2-3 hr. Then 0.8 ml/well medium was transferred into glass vials with hanging wells and filter papers soaked with H2O. After incubation in a cell culture incubator for at least 2 days to reach saturation, filter papers were taken out and the amount of evaporated ^3H2O was measured in a scintillation counter. Glucose oxidation, glutamine oxidation and fatty acid oxidation were measured essentially as reported. For measurement of glucose uptake, HDLECs were incubated with 2-[1-^14C]-deoxy-D-glucose (2.5 μCi/ml, Perkin Elmer) for 10 min. before PBS washing (at least 3 times to get rid of all radioactive medium) and then lysis with 500 μL 0.1 N NaOH. 400 μl NaOH cell lysate for each sample was transferred to scintillation vials containing scintillation liquid and measured.

[1] = test system: HK2 and other glycolytic enzymes in HDLECs; test: Western blot of glycolytic enzyme expression in HDLECs; type: cell-based, human; settings: protein
Experimental: (§1) Human dermal lymphatic endothelial cells (HDLECs, HMVEC-dLyNeo-Der Lym Endo EGM-2MV) and Pooled human umbilical vein endothelial cells (HUVECs) were purchased from Lonza and cultured in EBM2 basal medium with EGM-2 MV BulletKit. Both cell types were tested negative for mycoplasma in Lonza. Culture medium was changed every the other day. Tissue culture plates were coated with 0.1% gelatin (Sigma) for 30 min at 37° C. and washed with Dulbecco's Phosphate-Buffered Saline (Life Technologies) before cell plating. For siRNA-mediated gene knockdown, FGFR1 siRNA (ON-TARGETplus human FGFR1 siRNA, Dharmacon; Hs_FGFR1_6, Qiagen), FGFR3 siRNA (Hs_FGFR3_6, Qiagen), HK2 siRNA (s6562 human HK2 siRNA, Life Technologies), c-Myc siRNA (ON-TARGETplus human Myc siRNA, Dharmacon), AllStar negative control siRNA (Qiagen), and ON-TARGETplus Non-targeting pool (Dharmacon) were transfected by lipofectamine RNAimax reagent (Life Technologies). Human FGF2 was provided by Kaken Pharmaceutical Co, Ltd (Japan) and ordered from Peprotech. Human VEGFC, VEGFD, IGF1, IGF2 and PDGFBB were purchased from Peprotech. To assay the effect of FGFR1 knockdown on glycolytic enzyme expression, HDLECs, transfected with control or FGFR1 siRNA 3 days in advance, were replated and collected for protein analysis 24 hr later when the cell confluency reached ˜80%. […] ImageJ was used for densitometry quantification of western blot bands.

[2] = test system: FGF2-induced ERK activation in HDLECs; test: FGF2-induced ERK activation, Western blot of phosphorylated and total ERK; type: cell-based, human; settings: HDLECs infected with adenovirus, serum-starved, stimulated with FGF2
Experimental: as §1, with “bands. […]” for “bands.”

[3] = test system: tail skin lymphatic formation; test: Tail skin lymphatic formation in neonatal mice after adenovirus injection; type: in vivo; settings: adenovirus injected into mouse pups at P0 and P1, examined at P6
Description: Adenovirus encoding GFP, empty CMV vector, sFGFR1-IIIC (Murakami, M. et al., 118, 3355-3366, (2008)), HK2 (Wu, R. et al. Circulation research 108, 60-69, (2011)), or Myc (from Vector Biolabs) for in vitro experiments was amplified in 293A cells according to the user manual of ViraPower™ Adenoviral Expression System (Life Technologies). Virus was tittered using Adeno-X™ Rapid Titer Kit (Clontech Laboratories). For in vivo experiments, LacZ- or sFGFR1-IIIC was amplified and purified at University of North Carolina virus vector core. Neonatal pups were injected i.p. with 5×10^8 FFU of LacZ or sFGFR1-IIIC virus at P0 and P1. Tail skin was harvested at P6 using a method published previously (Xu, Y. et al., J Cell Biol 188, 115-130, (2010)).

B1: PDGFBB: platelet-derived growth factor-BB, purchased from Peprotech (protein, UniProt P01127 82-190, looked up)
Platelet-derived growth …: SLGSLTIAEPAMIAECKTRTEVFEISRRLIDRTNANFLVWPPCVEVQRCSGCCNNRNVQCRPTQVQLRPVQVRKIEIVRKKPIFKKATVTLEDHLACKCETVAAARPVT
HDLECs
  glycolytic flux: reduced flux

B2: VEGFC: Human VEGFC growth factor purchased from Peprotech (protein, UniProt P49767 112-227, looked up)
Vascular endothelial growth …: AHYNTEILKSIDNEWRKTQCMPREVCIDVGKEFGVATNTFFKPPCVSVYRCGGCCNSEGLQCMNTSTSYLSKTLFEITVPLSQGPKPVTISFANHTSCRCMSKLDVYRQVHSIIRR
HDLECs
  glycolytic flux: increased glycolytic flux, albeit to a lesser extent than FGF2
[1]
  glycolytic enzyme (HK2) expression: increased HK2 expression without affecting other enzymes

B3: VEGFD: Human VEGFD growth factor purchased from Peprotech (protein, UniProt O43915 89-205, looked up)
Vascular endothelial growth …: FAATFYDIETLKVIDEEWQRTQCSPRETCVEVASELGKSTNTFFKPPCVNVFRCGGCCNEESLICMNTSTSYISKQLFEISVPLTSVPELVPVKVANHTGCKCLPTAPRHPYSIIRR
HDLECs
  glycolytic flux: no effect

B4: sFGFR1-IIIC: soluble pan-FGF receptor trap, delivered by adenovirus (protein, UniProt P11362 22-376, looked up)
extracellular domain: RPSPTLPEQAQPWGAPVEVESFLVHPGDLLQLRCRLRDDVQSINWLRDGVQLAESNRTRITGEEVEVQDSVPADSGLYACVTSSPSGSDTTYFSVNVSDALPSSEDDDDDDDSSSEEKETDNTKPNRMPVAPYWTSPEKMEKKLHAVPAAKTVKFKCPSSGTPNPTLRWLKNGKEFKPDHRIGGYKVRYATWSIIMDSVVPSDKGNYTCIVENEYGSINHTYQLDVVERSPHRPILQAGLPANKTVALGSNVEFMCKVYSDPQPHIQWLKHIEVNGSKIGPDNLPYVQILKTAGVNTTDKEMEVLHLRNVSFEDAGEYTCLAGNSIGLSHHSAWLTVLEALEERPAVMTSPLYLE
modifications: extracellular domain IIIc isoform, adenovirus-delivered
[2]
  FGF2-induced ERK activation: inhibited FGF2-induced ERK activation to the same extent as DN-FGFR1
[3]
  tail skin lymphatic formation: significant inhibition of tail skin lymphatic formation
